PMC5180416

The substances below were run against WDR5 (WD (Trp-Asp) repeat domain 5) (UniProt P61964) (assay: fluorescence polarisation).
SRA (peptide) gave an IC50 of 2.9 µM.
Work on Ac-ARA-NH2 (peptide) yielded an IC50 of 0.54 µM and a Ki of 0.12 µM.
ARF (peptide) gave an IC50 of 280 µM.
In the case of ARG (peptide), the IC50 is reported as 10.3 µM and the Ki is reported as 2.2 µM.
ARV (peptide) gave an IC50 of 0.11 µM and a Ki of 0.02 µM.
ART (peptide) gave an IC50 of 0.08 µM.
For LRA (peptide), the IC50 was 10.8 µM and the Ki was 2.3 µM.
ARL (peptide) showed an IC50 of 34 µM and a Ki of 7.3 µM.
For TRA (peptide), the IC50 was 2.9 µM.
Substance ARS (peptide) has an IC50 of 1.8 µM.
VRA (peptide) showed an IC50 of 0.24 µM and a Ki of 0.05 µM.
Work on ARE (peptide) yielded an IC50 greater than 100 µM.
ARC (peptide) showed a Ki of 0.02 µM.
With HRA (peptide) the IC50 was 1.7 µM.
For GRA (peptide), the IC50 was 77.4 µM and the Ki was 16.7 µM.
In the case of AKA (peptide), the IC50 is reported as greater than 300 µM and the Ki is reported as greater than 65 µM.
Substance FRA (peptide) has an IC50 of 3.1 µM.
In the case of CRA (peptide), the IC50 is reported as 1.83 µM and the Ki is reported as 0.4 µM.
